Results on 1 substance are retold here after US8940501.

The experiment deals with receptor of interferon alpha (printed only as 'receptor'), on Daudi cells. Nature of the experiment: cell-based or functional assay.

Substance “commercially available IFNα (from UniProt P01563 24-188) (ligand)” gave an IC50 (pg/mL), inhibition of Daudi cell proliferation of 15.5 pg/mL.
